Assay results: publication PMC12923992 (Cell metabolism, 2026)

Biological target: T1, N-terminal cytosolic domain of Band 3 (residues 1–395) (human, UniProt P02730 1-395)
T1 sequence (looked up): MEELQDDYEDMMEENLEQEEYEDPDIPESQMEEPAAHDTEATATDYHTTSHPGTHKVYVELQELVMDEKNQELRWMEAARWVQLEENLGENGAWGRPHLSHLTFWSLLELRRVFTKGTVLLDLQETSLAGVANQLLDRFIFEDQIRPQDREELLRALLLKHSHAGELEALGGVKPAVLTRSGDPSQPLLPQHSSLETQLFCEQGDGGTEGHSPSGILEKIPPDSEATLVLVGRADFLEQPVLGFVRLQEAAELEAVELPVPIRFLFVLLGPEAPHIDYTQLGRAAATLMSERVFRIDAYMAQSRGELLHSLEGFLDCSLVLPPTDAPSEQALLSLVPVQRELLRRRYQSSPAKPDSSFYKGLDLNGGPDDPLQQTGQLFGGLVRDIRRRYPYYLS
Test: ITC

B1: recombinantly-expressed human GAPDH (enzyme)
chain: not shown
- Kd: 1.18 µM
